Where two headings read alike, the source gives them in different places. One block for each binder: values may come before it. Square brackets hold non-standard residues; d marks the D form. Ends that are not written are not given here. Phe(4-F) = N[C@@H](Cc1ccc(F)cc1)C(=O)O; Nle = CCCC[C@H](N)C(=O)O; Abu = CC[C@H](N)C(=O)O; Aib = CC(C)(N)C(=O)O; Sar = CNCC(=O)O
Columns and labels:
CDK2/cyclin A [1] = molecular target: T1, CDK2/cyclin A (UniProt P24941 1-298; P20248 1-432); experiment: cell-based or functional assay
CDK2/cyclin A complex = CDK2/cyclin A complex (UniProt P24941 1-298; P20248 1-432); experiment: cell-based or functional assay
CDK2/cyclin A [2] = molecular target: T1, CDK2/cyclin A; experiment: cell-based or functional assay; remark: listed apart in the source
CDK2/cyclin A [3] = molecular target: T1, CDK2/cyclin A; experiment: cell-based or functional assay; remark: listed apart in the source
CDK2/cyclin A [4] = molecular target: T1, CDK2/cyclin A; experiment: cell-based or functional assay; remark: listed apart in the source
Cyclin A = Cyclin A (UniProt P20248 173-432, limits assumed); experiment: competitive cyclin A binding ELISA, competitor: immobilised p21 peptide
CDK2/Cyclin E complex = CDK2/Cyclin E complex (UniProt P24941 1-298; P24864 1-410); experiment: cell-based or functional assay
CDK4/Cyclin D1 complex = CDK4/Cyclin D1 complex (UniProt P11802 1-303; P24385 1-295); experiment: cell-based or functional assay
Cyclin D1 = Cyclin D1 (UniProt P24385 1-295, limits assumed); experiment: competitive ELISA: cyclin D1 binding to immobilised biotinyl-Ahx-p21(149-159)
Sequence of Cyclin D1 (P24385 whole entry): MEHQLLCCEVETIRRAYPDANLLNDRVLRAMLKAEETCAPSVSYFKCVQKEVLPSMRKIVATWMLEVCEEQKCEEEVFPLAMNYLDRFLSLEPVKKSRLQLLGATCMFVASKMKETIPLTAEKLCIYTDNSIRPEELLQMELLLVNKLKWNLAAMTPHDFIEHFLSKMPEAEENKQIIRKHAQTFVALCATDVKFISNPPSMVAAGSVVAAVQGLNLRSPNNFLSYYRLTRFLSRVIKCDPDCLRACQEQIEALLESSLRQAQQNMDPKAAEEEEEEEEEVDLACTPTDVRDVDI
Text: The amount of bound Cyclin D1/Cyclin A was immunodetected and quantified by Turbo-ELISA reagent (PIERCE).

Sequence of CDK4/Cyclin D1 complex (P11802 other isoform, or with tags, fused parts or gaps, chain 1 of 2): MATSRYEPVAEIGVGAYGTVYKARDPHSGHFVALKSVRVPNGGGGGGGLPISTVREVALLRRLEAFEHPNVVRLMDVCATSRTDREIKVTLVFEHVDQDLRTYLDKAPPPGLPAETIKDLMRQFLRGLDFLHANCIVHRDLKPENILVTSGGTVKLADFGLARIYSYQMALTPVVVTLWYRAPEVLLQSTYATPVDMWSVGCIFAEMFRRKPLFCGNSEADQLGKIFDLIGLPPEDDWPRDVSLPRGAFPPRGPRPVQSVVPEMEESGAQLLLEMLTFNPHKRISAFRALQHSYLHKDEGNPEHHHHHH
Sequence of CDK4/Cyclin D1 complex (P24385 whole entry, chain 2 of 2): as the sequence (P24385 whole entry) above

- Relative activity, Kinase Inhibition (CDK2/cyclin A kinase assay, pRb substrate, [ATP] = 100 µM) (CDK2/cyclin A [1]): 0.3 relative to H-His-Ala-Lys-Arg-Arg-Leu-Ile-Phe-NH2 (=1)
B1: H-His-Ala-Nle-Arg-Arg-Leu-Ile-Phe-NH2 (peptide)
peptide: H-HA[Nle]RRLIF-NH2
SMILES: CCCC[C@H](NC(=O)[C@H](C)NC(=O)[C@@H](N)Cc1c[nH]cn1)C(=O)N[C@@H](CCCNC(=N)N)C(=O)N[C@@H](CCCNC(=N)N)C(=O)N[C@@H](CC(C)C)C(=O)N[C@H](C(=O)N[C@@H](Cc1ccccc1)C(N)=O)[C@@H](C)CC

- Relative activity, CDK2/cyclin A kinase inhibition (pRb substrate) (CDK2/cyclin A complex): 2 relative to HAKRRLIF-NH2
B4: H-Thi-Ala-Lys-Arg-Arg-Leu-Ile Phe-NH2 (peptide)
peptide: XAKRRLIF
modifications: Thi (2-thienylalanine) at position 1; C-terminal amide

- Relative activity, Kinase Inhibition (CDK2/cyclin A kinase assay, pRb substrate, [ATP] = 100 µM) (CDK2/cyclin A [3]): < 0.1 relative to H-His-Ala-Lys-Arg-Arg-Leu-Ile-Phe-NH2 (=1)
B7: H-His-Ala-Lys-Nle-Arg-Leu-Ile-Phe-NH2 (peptide)
peptide: H-HAK[Nle]RLIF-NH2
SMILES: CCCC[C@H](NC(=O)[C@H](CCCCN)NC(=O)[C@H](C)NC(=O)[C@@H](N)Cc1c[nH]cn1)C(=O)N[C@@H](CCCNC(=N)N)C(=O)N[C@@H](CC(C)C)C(=O)N[C@H](C(=O)N[C@@H](Cc1ccccc1)C(N)=O)[C@@H](C)CC

- Relative activity, Kinase Inhibition (CDK2/cyclin A kinase assay, pRb substrate, [ATP] = 100 µM) (CDK2/cyclin A [3]): 0.8 relative to H-His-Ala-Lys-Arg-Arg-Leu-Ile-Phe-NH2 (=1)
B8: H-His-Ala-Lys-Lys-Arg-Leu-Ile-Phe-NH2 (peptide)
peptide: H-HAKKRLIF-NH2

- Relative activity, Kinase Inhibition (CDK2/cyclin A kinase assay, pRb substrate, [ATP] = 100 µM) (CDK2/cyclin A [4]): < 0.1 relative to H-His-Ala-Lys-Arg-Arg-Leu-Ile-Phe-NH2 (=1)
B9: H-His-Ala-Lys-Arg-Aib-Leu-Ile-Phe-NH2 (peptide)
peptide: H-HAKR[Aib]LIF-NH2
SMILES: CC[C@H](C)[C@H](NC(=O)[C@H](CC(C)C)NC(=O)C(C)(C)NC(=O)[C@H](CCCNC(=N)N)NC(=O)[C@H](CCCCN)NC(=O)[C@H](C)NC(=O)[C@@H](N)Cc1c[nH]cn1)C(=O)N[C@@H](Cc1ccccc1)C(N)=O

- Relative activity, Kinase Inhibition (CDK2/cyclin A kinase assay, pRb substrate, [ATP] = 100 µM) (CDK2/cyclin A [4]): < 0.1 relative to H-His-Ala-Lys-Arg-Arg-Leu-Ile-Phe-NH2 (=1)
B13: H-His-Ala-Lys-Arg-Sar-Leu-Ile-Phe-NH2 (peptide)
peptide: H-HAKR[Sar]LIF-NH2
SMILES: CC[C@H](C)[C@H](NC(=O)[C@H](CC(C)C)NC(=O)CN(C)C(=O)[C@H](CCCNC(=N)N)NC(=O)[C@H](CCCCN)NC(=O)[C@H](C)NC(=O)[C@@H](N)Cc1c[nH]cn1)C(=O)N[C@@H](Cc1ccccc1)C(N)=O

- Relative activity, Kinase Inhibition (CDK2/cyclin A kinase assay, pRb substrate, [ATP] = 100 µM) (CDK2/cyclin A [4]): < 0.1 relative to H-His-Ala-Lys-Arg-Arg-Leu-Ile-Phe-NH2 (=1)
B16: H-His-Ala-Lys-Arg-Asn-Leu-Ile-Phe-NH2 (peptide)
peptide: H-HAKRNLIF-NH2

More lines, now with the values behind:

B2: H-Ala-Ala-Lys-Arg-Arg-Leu-Ile Phe-NH2 (peptide)
peptide: H-AAKRRLIF-NH2
- Relative activity, CDK2/cyclin A kinase inhibition (pRb substrate) (CDK2/cyclin A complex): 1.8 relative to HAKRRLIF-NH2

B3: H-Ala-Ala-Lys-Arg-Arg-Leu-Ala-pFPhe-NH2 (peptide)
peptide: H-AAKRRLA[Phe(4-F)]-NH2
SMILES: CC(C)C[C@H](NC(=O)[C@H](CCCNC(=N)N)NC(=O)[C@H](CCCNC(=N)N)NC(=O)[C@H](CCCCN)NC(=O)[C@H](C)NC(=O)[C@H](C)N)C(=O)N[C@@H](C)C(=O)N[C@@H](Cc1ccc(F)cc1)C(N)=O
- Relative activity, Kinase Inhibition (CDK2/cyclin A kinase assay, pRb substrate, [ATP] = 100 µM) (CDK2/cyclin A [2]): 20 relative to H-His-Ala-Lys-Arg-Arg-Leu-Ile-Phe-NH2 (=1)

B5: H-His-Ala-Ala-Arg-Arg-Leu-Ile-Phe-NH2 (peptide)
peptide: H-HAARRLIF-NH2
- Relative activity, Kinase Inhibition (CDK2/cyclin A kinase assay, pRb substrate, [ATP] = 100 µM) (CDK2/cyclin A [1]): < 0.1 relative to H-His-Ala-Lys-Arg-Arg-Leu-Ile-Phe-NH2 (=1)

B6: H-Ala-Ala-Abu-Arg-Ser-Leu-Ile-pFPhe-NH2 (peptide)
peptide: H-AA[Abu]RSLI[Phe(4-F)]-NH2
SMILES: CC[C@H](NC(=O)[C@H](C)NC(=O)[C@H](C)N)C(=O)N[C@@H](CCCNC(=N)N)C(=O)N[C@@H](CO)C(=O)N[C@@H](CC(C)C)C(=O)N[C@H](C(=O)N[C@@H](Cc1ccc(F)cc1)C(N)=O)[C@@H](C)CC
- Relative activity, Kinase Inhibition (CDK2/cyclin A kinase assay, pRb substrate, [ATP] = 100 µM) (CDK2/cyclin A [2]): 14 relative to H-His-Ala-Lys-Arg-Arg-Leu-Ile-Phe-NH2 (=1)

B10: H-His-Ala-Abu-Arg-Arg-Leu-Ile-Phe-NH2 (peptide)
peptide: H-HA[Abu]RRLIF-NH2
SMILES: CC[C@H](NC(=O)[C@H](C)NC(=O)[C@@H](N)Cc1c[nH]cn1)C(=O)N[C@@H](CCCNC(=N)N)C(=O)N[C@@H](CCCNC(=N)N)C(=O)N[C@@H](CC(C)C)C(=O)N[C@H](C(=O)N[C@@H](Cc1ccccc1)C(N)=O)[C@@H](C)CC
- Relative activity, Kinase Inhibition (CDK2/cyclin A kinase assay, pRb substrate, [ATP] = 100 µM) (CDK2/cyclin A [1]): 0.8 relative to H-His-Ala-Lys-Arg-Arg-Leu-Ile-Phe-NH2 (=1)

B11: H-Ala-Lys-Arg-Arg-Leu-Ile-pFPhe-NH2 (peptide)
peptide: AKRRLIX
modifications: pFPhe (p-fluorophenylalanine) at position 7; C-terminal amide (-NH2)
- Relative activity, Kinase Inhibition (CDK2/cyclin A kinase assay, pRb substrate, [ATP] = 100 µM) (CDK2/cyclin A [2]): 4 relative to H-His-Ala-Lys-Arg-Arg-Leu-Ile-Phe-NH2 (=1)

B12: GST-pRb(772-928) (other, UniProt P06400 772-928, looked up)
chain: ASTRPPTLSPIPHIPRSPYKFPSSPLRIPGGNIYISPLKSPYKISEGLPTPTKMTPRSRILVSIGESFGTSEKFQKINQMVCNSDRVLKRSAEGSNPPKPLKKLRFDIEGSDEADGSKHLPGESKFQQKLAEMTSTRTRMQKQKMNDSMDTSNKEEK
notes: range 772-928; Limits of the pRb part are printed inconsistently; also called GST-Rb; GST-Rb(772-928); not shown: glutathione S-transferase (GST) fusion partner
- IC50 (Cyclin A): 9 µM

B14: H-His-Ala-Arg-Arg-Arg-Leu-Ile-Phe-NH2 (peptide)
peptide: H-HARRRLIF-NH2
- Relative activity, Kinase Inhibition (CDK2/cyclin A kinase assay, pRb substrate, [ATP] = 100 µM) (CDK2/cyclin A [1]): 5.7 relative to H-His-Ala-Lys-Arg-Arg-Leu-Ile-Phe-NH2 (=1)

B15: P21 C-terminus-LDL hybrid HSKRRLDL-NH2 (peptide)
peptide: HSKRRLDL-NH2
- % Inhibition, cyclin E/CDK2 kinase (CDK2/Cyclin E complex): 74%
- % Inhibition, cyclin D1/CDK4 kinase (CDK4/Cyclin D1 complex): 24%
- IC50 (Cyclin D1): > 200 µM

B17: H-Ala-Ala-Lys-Gln-Arg-Leu-Ile-pFPhe-NH2 (peptide)
peptide: H-AAKQRLI[Phe(4-F)]-NH2
SMILES: CC[C@H](C)[C@H](NC(=O)[C@H](CC(C)C)NC(=O)[C@H](CCCNC(=N)N)NC(=O)[C@H](CCC(N)=O)NC(=O)[C@H](CCCCN)NC(=O)[C@H](C)NC(=O)[C@H](C)N)C(=O)N[C@@H](Cc1ccc(F)cc1)C(N)=O
- Relative activity, Kinase Inhibition (CDK2/cyclin A kinase assay, pRb substrate, [ATP] = 100 µM) (CDK2/cyclin A [2]): 4 relative to H-His-Ala-Lys-Arg-Arg-Leu-Ile-Phe-NH2 (=1)
